Each block holds one binder with its values, some of them ahead of it. * marks the point of attachment. Palmitoyl = CCCCCCCCCCCCCCCC(=O)*
Target: PTHR1 receptor
Sequence (P25961 whole entry): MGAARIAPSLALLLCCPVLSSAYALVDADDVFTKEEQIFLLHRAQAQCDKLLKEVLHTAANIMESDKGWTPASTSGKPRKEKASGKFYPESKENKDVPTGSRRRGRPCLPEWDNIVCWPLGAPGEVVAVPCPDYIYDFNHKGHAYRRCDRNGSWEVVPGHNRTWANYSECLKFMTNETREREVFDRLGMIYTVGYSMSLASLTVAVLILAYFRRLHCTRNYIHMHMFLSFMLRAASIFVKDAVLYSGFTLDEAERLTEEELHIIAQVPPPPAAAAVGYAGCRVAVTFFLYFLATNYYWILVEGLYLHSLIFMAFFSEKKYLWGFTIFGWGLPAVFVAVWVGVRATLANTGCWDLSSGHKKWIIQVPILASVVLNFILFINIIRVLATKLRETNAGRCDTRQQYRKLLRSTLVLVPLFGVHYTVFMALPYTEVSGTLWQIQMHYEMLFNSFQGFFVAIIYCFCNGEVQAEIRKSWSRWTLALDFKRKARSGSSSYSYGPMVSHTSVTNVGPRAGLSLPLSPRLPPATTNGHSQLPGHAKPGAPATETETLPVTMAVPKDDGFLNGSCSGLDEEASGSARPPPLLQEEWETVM

- Fold Shift of EC50: 0.6 fold
- Inhibition of Maximal Response: 26.1%
B1: Compound 55 (peptide)
peptide: Palmitoyl-NIVRVLATKLRE-NH2
SMILES: CCCCCCCCCCCCCCCC(=O)N[C@@H](CC(N)=O)C(=O)N[C@H](C(=O)N[C@H](C(=O)N[C@@H](CCCNC(=N)N)C(=O)N[C@H](C(=O)N[C@@H](CC(C)C)C(=O)N[C@@H](C)C(=O)N[C@H](C(=O)N[C@@H](CCCCN)C(=O)N[C@@H](CC(C)C)C(=O)N[C@@H](CCCNC(=N)N)C(=O)N[C@@H](CCC(=O)O)C(N)=O)[C@@H](C)O)C(C)C)C(C)C)[C@@H](C)CC

- Fold Shift of EC50: 1.1 fold
- Inhibition of Maximal Response: 19.8%
B2: Compound 11 (peptide)
peptide: Palmitoyl-GSYFRRLHSTRNYIH-NH2
SMILES: CCCCCCCCCCCCCCCC(=O)NCC(=O)N[C@@H](CO)C(=O)N[C@@H](Cc1ccc(O)cc1)C(=O)N[C@@H](Cc1ccccc1)C(=O)N[C@@H](CCCNC(=N)N)C(=O)N[C@@H](CCCNC(=N)N)C(=O)N[C@@H](CC(C)C)C(=O)N[C@@H](Cc1c[nH]cn1)C(=O)N[C@@H](CO)C(=O)N[C@H](C(=O)N[C@@H](CCCNC(=N)N)C(=O)N[C@@H](CC(N)=O)C(=O)N[C@@H](Cc1ccc(O)cc1)C(=O)N[C@H](C(=O)N[C@@H](Cc1c[nH]cn1)C(N)=O)[C@@H](C)CC)[C@@H](C)O

- Fold Shift of EC50: 1.9 fold
- Inhibition of Maximal Response: -24.9%
B3: Compound 2 (peptide)
peptide: Palmitoyl-RRLHSTRNYIH-NH2
SMILES: CCCCCCCCCCCCCCCC(=O)N[C@@H](CCCNC(=N)N)C(=O)N[C@@H](CCCNC(=N)N)C(=O)N[C@@H](CC(C)C)C(=O)N[C@@H](Cc1c[nH]cn1)C(=O)N[C@@H](CO)C(=O)N[C@H](C(=O)N[C@@H](CCCNC(=N)N)C(=O)N[C@@H](CC(N)=O)C(=O)N[C@@H](Cc1ccc(O)cc1)C(=O)N[C@H](C(=O)N[C@@H](Cc1c[nH]cn1)C(N)=O)[C@@H](C)CC)[C@@H](C)O

- Fold Shift of EC50: 17.7 fold
- Inhibition of Maximal Response: 0.0367
B4: Compound 58 (peptide)
peptide: Palmitoyl-RETNAGRSDTRQQYRKLLFS-NH2
SMILES: CCCCCCCCCCCCCCCC(=O)N[C@@H](CCCNC(=N)N)C(=O)N[C@@H](CCC(=O)O)C(=O)N[C@H](C(=O)N[C@@H](CC(N)=O)C(=O)N[C@@H](C)C(=O)NCC(=O)N[C@@H](CCCNC(=N)N)C(=O)N[C@@H](CO)C(=O)N[C@@H](CC(=O)O)C(=O)N[C@H](C(=O)N[C@@H](CCCNC(=N)N)C(=O)N[C@@H](CCC(N)=O)C(=O)N[C@@H](CCC(N)=O)C(=O)N[C@@H](Cc1ccc(O)cc1)C(=O)N[C@@H](CCCNC(=N)N)C(=O)N[C@@H](CCCCN)C(=O)N[C@@H](CC(C)C)C(=O)N[C@@H](CC(C)C)C(=O)N[C@@H](Cc1ccccc1)C(=O)N[C@@H](CO)C(N)=O)[C@@H](C)O)[C@@H](C)O

- Fold Shift of EC50: 1.5 fold
- Inhibition of Maximal Response: 28.3%
Binder: Palmitoyl-LYLHSLIFMAFFSEKK-NH2 (not fully specified) [Compound 40]

- Fold Shift of EC50: 1.3 fold
- Inhibition of Maximal Response: 29.3%
B5: Compound 39 (peptide)
peptide: Palmitoyl-LYLHSLIFMAFFSEKKYL-NH2
SMILES: CCCCCCCCCCCCCCCC(=O)N[C@@H](CC(C)C)C(=O)N[C@@H](Cc1ccc(O)cc1)C(=O)N[C@@H](CC(C)C)C(=O)N[C@@H](Cc1c[nH]cn1)C(=O)N[C@@H](CO)C(=O)N[C@@H](CC(C)C)C(=O)N[C@H](C(=O)N[C@@H](Cc1ccccc1)C(=O)N[C@@H](CCSC)C(=O)N[C@@H](C)C(=O)N[C@@H](Cc1ccccc1)C(=O)N[C@@H](Cc1ccccc1)C(=O)N[C@@H](CO)C(=O)N[C@@H](CCC(=O)O)C(=O)N[C@@H](CCCCN)C(=O)N[C@@H](CCCCN)C(=O)N[C@@H](Cc1ccc(O)cc1)C(=O)N[C@@H](CC(C)C)C(N)=O)[C@@H](C)CC

- Fold Shift of EC50: 15.6 fold
- Inhibition of Maximal Response: -38.8%
B6: Compound 57 (peptide)
peptide: Palmitoyl-RQQYRKLLKSTL-NH2
SMILES: CCCCCCCCCCCCCCCC(=O)N[C@@H](CCCNC(=N)N)C(=O)N[C@@H](CCC(N)=O)C(=O)N[C@@H](CCC(N)=O)C(=O)N[C@@H](Cc1ccc(O)cc1)C(=O)N[C@@H](CCCNC(=N)N)C(=O)N[C@@H](CCCCN)C(=O)N[C@@H](CC(C)C)C(=O)N[C@@H](CC(C)C)C(=O)N[C@@H](CCCCN)C(=O)N[C@@H](CO)C(=O)N[C@H](C(=O)N[C@@H](CC(C)C)C(N)=O)[C@@H](C)O

- Fold Shift of EC50: 1.1 fold
- Inhibition of Maximal Response: 24.1%
B7: Compound 10 (peptide)
peptide: Palmitoyl-LAYFRRLHSTRNYIHMH-NH2
SMILES: CCCCCCCCCCCCCCCC(=O)N[C@@H](CC(C)C)C(=O)N[C@@H](C)C(=O)N[C@@H](Cc1ccc(O)cc1)C(=O)N[C@@H](Cc1ccccc1)C(=O)N[C@@H](CCCNC(=N)N)C(=O)N[C@@H](CCCNC(=N)N)C(=O)N[C@@H](CC(C)C)C(=O)N[C@@H](Cc1c[nH]cn1)C(=O)N[C@@H](CO)C(=O)N[C@H](C(=O)N[C@@H](CCCNC(=N)N)C(=O)N[C@@H](CC(N)=O)C(=O)N[C@@H](Cc1ccc(O)cc1)C(=O)N[C@H](C(=O)N[C@@H](Cc1c[nH]cn1)C(=O)N[C@@H](CCSC)C(=O)N[C@@H](Cc1c[nH]cn1)C(N)=O)[C@@H](C)CC)[C@@H](C)O

- Fold Shift of EC50: 0.7 fold
- Inhibition of Maximal Response: 15.2%
B8: Compound 14 (peptide)
peptide: Palmitoyl-LAYFRRLHSTRN-NH2
SMILES: CCCCCCCCCCCCCCCC(=O)N[C@@H](CC(C)C)C(=O)N[C@@H](C)C(=O)N[C@@H](Cc1ccc(O)cc1)C(=O)N[C@@H](Cc1ccccc1)C(=O)N[C@@H](CCCNC(=N)N)C(=O)N[C@@H](CCCNC(=N)N)C(=O)N[C@@H](CC(C)C)C(=O)N[C@@H](Cc1c[nH]cn1)C(=O)N[C@@H](CO)C(=O)N[C@H](C(=O)N[C@@H](CCCNC(=N)N)C(=O)N[C@@H](CC(N)=O)C(N)=O)[C@@H](C)O

- Fold Shift of EC50: 0.9 fold
- Inhibition of Maximal Response: 26.6%
B9: Compound 12 (peptide)
peptide: Palmitoyl-SSYFRRLHSTRNYIH-NH2
SMILES: CCCCCCCCCCCCCCCC(=O)N[C@@H](CO)C(=O)N[C@@H](CO)C(=O)N[C@@H](Cc1ccc(O)cc1)C(=O)N[C@@H](Cc1ccccc1)C(=O)N[C@@H](CCCNC(=N)N)C(=O)N[C@@H](CCCNC(=N)N)C(=O)N[C@@H](CC(C)C)C(=O)N[C@@H](Cc1c[nH]cn1)C(=O)N[C@@H](CO)C(=O)N[C@H](C(=O)N[C@@H](CCCNC(=N)N)C(=O)N[C@@H](CC(N)=O)C(=O)N[C@@H](Cc1ccc(O)cc1)C(=O)N[C@H](C(=O)N[C@@H](Cc1c[nH]cn1)C(N)=O)[C@@H](C)CC)[C@@H](C)O

- Fold Shift of EC50: 1.9 fold
- Inhibition of Maximal Response: -30.4%
B10: Compound 56 (peptide)
peptide: Palmitoyl-DTRQQYRKLLKSTL-NH2
SMILES: CCCCCCCCCCCCCCCC(=O)N[C@@H](CC(=O)O)C(=O)N[C@H](C(=O)N[C@@H](CCCNC(=N)N)C(=O)N[C@@H](CCC(N)=O)C(=O)N[C@@H](CCC(N)=O)C(=O)N[C@@H](Cc1ccc(O)cc1)C(=O)N[C@@H](CCCNC(=N)N)C(=O)N[C@@H](CCCCN)C(=O)N[C@@H](CC(C)C)C(=O)N[C@@H](CC(C)C)C(=O)N[C@@H](CCCCN)C(=O)N[C@@H](CO)C(=O)N[C@H](C(=O)N[C@@H](CC(C)C)C(N)=O)[C@@H](C)O)[C@@H](C)O

- Fold Shift of EC50: 0.7 fold
- Inhibition of Maximal Response: 29.2%
B11: Compound 13 (peptide)
peptide: Palmitoyl-GGYFRRLHSTRNYIH-NH2
SMILES: CCCCCCCCCCCCCCCC(=O)NCC(=O)NCC(=O)N[C@@H](Cc1ccc(O)cc1)C(=O)N[C@@H](Cc1ccccc1)C(=O)N[C@@H](CCCNC(=N)N)C(=O)N[C@@H](CCCNC(=N)N)C(=O)N[C@@H](CC(C)C)C(=O)N[C@@H](Cc1c[nH]cn1)C(=O)N[C@@H](CO)C(=O)N[C@H](C(=O)N[C@@H](CCCNC(=N)N)C(=O)N[C@@H](CC(N)=O)C(=O)N[C@@H](Cc1ccc(O)cc1)C(=O)N[C@H](C(=O)N[C@@H](Cc1c[nH]cn1)C(N)=O)[C@@H](C)CC)[C@@H](C)O

- Fold Shift of EC50: 0.7 fold
- Inhibition of Maximal Response: 17.5%
B12: Compound 54 (peptide)
peptide: Palmitoyl-NIVRVLATKLRETNAGR-NH2
SMILES: CCCCCCCCCCCCCCCC(=O)N[C@@H](CC(N)=O)C(=O)N[C@H](C(=O)N[C@H](C(=O)N[C@@H](CCCNC(=N)N)C(=O)N[C@H](C(=O)N[C@@H](CC(C)C)C(=O)N[C@@H](C)C(=O)N[C@H](C(=O)N[C@@H](CCCCN)C(=O)N[C@@H](CC(C)C)C(=O)N[C@@H](CCCNC(=N)N)C(=O)N[C@@H](CCC(=O)O)C(=O)N[C@H](C(=O)N[C@@H](CC(N)=O)C(=O)N[C@@H](C)C(=O)NCC(=O)N[C@@H](CCCNC(=N)N)C(N)=O)[C@@H](C)O)[C@@H](C)O)C(C)C)C(C)C)[C@@H](C)CC

- Fold Shift of EC50: 1.1 fold
- Inhibition of Maximal Response: 21.9%
B13: Compound 38 (peptide)
peptide: Palmitoyl-LYLHSLIFMAFFSEKKYLWG-NH2
SMILES: CCCCCCCCCCCCCCCC(=O)N[C@@H](CC(C)C)C(=O)N[C@@H](Cc1ccc(O)cc1)C(=O)N[C@@H](CC(C)C)C(=O)N[C@@H](Cc1c[nH]cn1)C(=O)N[C@@H](CO)C(=O)N[C@@H](CC(C)C)C(=O)N[C@H](C(=O)N[C@@H](Cc1ccccc1)C(=O)N[C@@H](CCSC)C(=O)N[C@@H](C)C(=O)N[C@@H](Cc1ccccc1)C(=O)N[C@@H](Cc1ccccc1)C(=O)N[C@@H](CO)C(=O)N[C@@H](CCC(=O)O)C(=O)N[C@@H](CCCCN)C(=O)N[C@@H](CCCCN)C(=O)N[C@@H](Cc1ccc(O)cc1)C(=O)N[C@@H](CC(C)C)C(=O)N[C@@H](Cc1c[nH]c2ccccc12)C(=O)NCC(N)=O)[C@@H](C)CC

Reference: patent US20110294738A1, “PTHR1 RECEPTOR COMPOUNDS” (priority 2008, published 2011)
